Results published in patent US20260007756A1, “COMPOUND AND USE THEREOF” (COHERENT BIOPHARMA (SUZHOU) LIMITED, priority 2022, published 2026).
Converted amounts (≈) assume the structure as drawn. Numbered stars: 1 amine (or outer) side, 2 acyl side, 3 side chain; on linkers, the order of the positions; unused ones are H or OH. Square brackets hold non-standard residues; d marks the D form. Side chains are listed from the residue outwards. Peptide text beside a SMILES is read from it. * marks the point of attachment. EuK = O=C(O)CC[C@H](NC(=O)N[C@@H](CCCCN*)C(=O)O)C(=O)O; Pteroyl = Nc1nc2ncc(CNc3ccc(C(=O)*)cc3)nc2c(=O)[nH]1; γGlu = O=C(O)[C@H](CCC(=O)[*:2])N[*:1]; X1 = O=C(Cc1ccc(CN[*:1])cc1)[*:2]; Pra = C#CC[C@H](N)C(=O)O; CO = O=C([*:1])[*:2]

Legend:
MDA-MB-231 = format: cell-based, human; conditions: MDA-MB-231, 72 h, CellTiter-Glo
From the text: (§1) Negative and blank controls were set.

22RV1 = format: cell-based, human; conditions: 22RV1, 72 h, CellTiter-Glo
From the text: as §1

Solubility study in PBS = format: physicochemical; conditions: aqueous buffer, thermodynamic from solid; PBS (pH 7.2 to 7.4); read-out: Solubility, concentration
Description: The mixture was vortexed for 2 min until the solid was dissolved. The solubility was calculated as: C=m/V, C: concentration, m: sample weight, V: PBS total volume.

Plasma stability study 2 = format: in vitro ADME; conditions: mouse plasma, 37° C.
Description: • 1) The conjugate compounds were prepared into 1 mg/mL stock solutions with 0.1% TFA-acetonitrile water (1:1); • 2) 10 μL of 1 mg/mL compound stock solution was added into 90 μL of fresh plasma, and the mixture was well mixed by gentle shaking, and transferred to a thermostatic incubator at 37° C. for 0 h, 0.5 h, 1 h, 2 h, 4 h, 6 h, or 24 h of incubation; • 3) at the time points, samples were taken out and 300 μL of methanol solution (containing 10 ng/ml of terfenadine) was added for protein precipitation; • 4) the mixture was centrifuged (13 min, 4° C., 12000 rpm) and the supernatant was collected, and preserved in a −80° C. refrigerator; after collection, the samples were loaded for LC-MS analysis.

CC[C@@H]1C(=O)N(C)c2cnc(Nc3ccc(-c4cn([C@H]5CC[C@@H](N(CCOCCC#Cc6cccc7c6CN(C6CCC(=O)NC6=O)C7=O)C(=O)OCc6ccc(NC(=O)[C@H](CCCNC(N)=O)NC(=O)[C@@H](NC(=O)COCCOCCn7cc(C[C@H](NC(=O)[C@H](CCCCN)NC(=O)[C@H](CC(=O)O)NC(=O)[C@H](CC(=O)O)NC(=O)Cc8ccc(CNC(=O)NCCCC[C@H](NC(=O)N[C@@H](CCC(=O)O)C(=O)O)C(=O)O)cc8)C(=O)N[C@@H](CCCCNC(=O)CC[C@H](NC(=O)c8ccc(NCc9cnc%10[nH]c(N)nc(=O)c%10n9)cc8)C(=O)O)C(N)=O)nn7)C(C)C)c(OC)c6)CC5)nn4)cc3OC)nc2N1C1CCCC1 (some centres unmarked) [CR202FU]
IC50 (MDA-MB-231): 0.792 µM
IC50 (22RV1): 0.469 µM

CC[C@@H]1C(=O)N(C)c2cnc(Nc3ccc(-c4cn([C@H]5CC[C@@H](N(CCOCCC#Cc6cccc7c6CN(C6CCC(=O)NC6=O)C7=O)C(=O)OCc6ccc(NC(=O)[C@H](CCCNC(N)=O)NC(=O)[C@@H](NC(=O)OCCOCCNS(=O)(=O)NC(=O)OCCn7cc(C[C@H](NC(=O)[C@H](CCCCN)NC(=O)[C@H](CC(=O)O)NC(=O)[C@H](CC(=O)O)NC(=O)Cc8ccc(CNC(=O)NCCCC[C@H](NC(=O)N[C@@H](CCC(=O)O)C(=O)O)C(=O)O)cc8)C(=O)N[C@@H](CCCCNC(=O)CC[C@H](NC(=O)c8ccc(NCc9cnc%10[nH]c(N)nc(=O)c%10n9)cc8)C(=O)O)C(N)=O)nn7)C(C)C)cc6)CC5)nn4)cc3OC)nc2N1C1CCCC1 (some centres unmarked) [CR202GM]
IC50 (MDA-MB-231): 0.512 µM
IC50 (22RV1): 0.287 µM

CC[C@@H]1C(=O)N(C)c2cnc(Nc3ccc(-c4cn([C@H]5CC[C@@H](N(CCOCCC#Cc6cccc7c6CN(C6CCC(=O)NC6=O)C7=O)C(=O)CNC(=O)[C@@H]6CCCN6C(=O)[C@H](CCCNC(N)=O)NC(=O)[C@@H](NC(=O)COCCOCCn6cc(C[C@H](NC(=O)[C@H](CCCCN)NC(=O)[C@H](CC(=O)O)NC(=O)[C@H](CC(=O)O)NC(=O)Cc7ccc(CNC(=O)NCCCC[C@H](NC(=O)N[C@@H](CCC(=O)O)C(=O)O)C(=O)O)cc7)C(=O)N[C@@H](CCCCNC(=O)CC[C@H](NC(=O)c7ccc(NCc8cnc9[nH]c(N)nc(=O)c9n8)cc7)C(=O)O)C(N)=O)nn6)C(C)C)CC5)nn4)cc3OC)nc2N1C1CCCC1 (some centres unmarked) [CR202GQ]
IC50 (MDA-MB-231): 4.48 µM
IC50 (22RV1): 3.16 µM

CC[C@@H]1C(=O)N(C)c2cnc(Nc3ccc(-c4cn([C@H]5CC[C@@H](N(CCOCCC#Cc6cccc7c6CN(C6CCC(=O)NC6=O)C7=O)C(=O)NCCNC(=O)OCc6ccc(NC(=O)[C@H](CCCNC(N)=O)NC(=O)[C@@H](NC(=O)COCCOCCn7cc(C[C@H](NC(=O)[C@H](CCCCN)NC(=O)[C@H](CC(=O)O)NC(=O)[C@H](CC(=O)O)NC(=O)Cc8ccc(CNC(=O)NCCCC[C@H](NC(=O)N[C@@H](CCC(=O)O)C(=O)O)C(=O)O)cc8)C(=O)N[C@@H](CCCCNC(=O)CC[C@H](NC(=O)c8ccc(NCc9cnc%10[nH]c(N)nc(=O)c%10n9)cc8)C(=O)O)C(N)=O)nn7)C(C)C)cc6)CC5)nn4)cc3OC)nc2N1C1CCCC1 (some centres unmarked) [CR202HJ]
IC50 (MDA-MB-231): 3.65 µM
IC50 (22RV1): 1.22 µM

CC[C@@H]1C(=O)N(C)c2cnc(Nc3ccc(-c4cn([C@H]5CC[C@@H](N(CCOCCC#Cc6cccc7c6CN(C6CCC(=O)NC6=O)C7=O)C(=O)OC[C@@H](C)SSC[C@H](NC(=O)[C@H](CCCCN)NC(=O)[C@H](CC(=O)O)NC(=O)[C@H](CC(=O)O)NC(=O)Cc6ccc(CNC(=O)NCCCC[C@H](NC(=O)N[C@@H](CCC(=O)O)C(=O)O)C(=O)O)cc6)C(=O)N[C@@H](CCCCNC(=O)CC[C@H](NC(=O)c6ccc(NCc7cnc8[nH]c(N)nc(=O)c8n7)cc6)C(=O)O)C(N)=O)CC5)nn4)cc3OC)nc2N1C1CCCC1 (some centres unmarked) [CR202HV]
IC50 (MDA-MB-231): 0.0142 µM
IC50 (22RV1): 0.155 µM

CC[C@@H]1C(=O)N(C)c2cnc(Nc3ccc(-c4cn([C@H]5CC[C@@H](N(CCOCCC#Cc6cccc7c6CN(C6CCC(=O)NC6=O)C7=O)C(=O)OCc6ccc(NC(=O)[C@H](CC(N)=O)NC(=O)[C@H](CC(N)=O)NC(=O)CNC(=O)COCCOCCn7cc(C[C@H](NC(=O)[C@H](CCCCN)NC(=O)[C@H](CC(=O)O)NC(=O)[C@H](CC(=O)O)NC(=O)Cc8ccc(CNC(=O)NCCCC[C@H](NC(=O)N[C@@H](CCC(=O)O)C(=O)O)C(=O)O)cc8)C(=O)N[C@@H](CCCCNC(=O)CC[C@H](NC(=O)c8ccc(NCc9cnc%10[nH]c(N)nc(=O)c%10n9)cc8)C(=O)O)C(N)=O)nn7)cc6)CC5)nn4)cc3OC)nc2N1C1CCCC1 (some centres unmarked) [CR202V9]
solubility (Solubility study in PBS): 15800 µg/mL (≈ 5.26 mM)
CR20274 release rate (actual release/theoretical release) (Plasma stability study 2; 0 h): 0.11%
Residual rate of principal component (Plasma stability study 2; 0 h): 99.22%
CR20274 release rate (actual release/theoretical release) (Plasma stability study 2; 0.5 h): 0.17%
remaining at 0.5 h, 100 μg/mL (Plasma stability study 2; 0.5 h, read-out: Residual rate of principal component): 99.8%
CR20274 release rate (actual release/theoretical release) (Plasma stability study 2; 1 h): 0.22%
remaining at 1 h, 100 μg/mL (Plasma stability study 2; 1 h, read-out: Residual rate of principal component): 98.4%
CR20274 release rate (actual release/theoretical release) (Plasma stability study 2; 2 h): 0.21%
remaining at 2 h, 100 μg/mL (Plasma stability study 2; 2 h, read-out: Residual rate of principal component): 89.6%
CR20274 release rate (actual release/theoretical release) (Plasma stability study 2; 4 h): 0.25%
remaining at 4 h, 100 μg/mL (Plasma stability study 2; 4 h, read-out: Residual rate of principal component): 67.1%
CR20274 release rate (actual release/theoretical release) (Plasma stability study 2; 6 h): 0.30%
remaining at 6 h, 100 μg/mL (Plasma stability study 2; 6 h, read-out: Residual rate of principal component): 66.3%
CR20274 release rate (actual release/theoretical release) (Plasma stability study 2; 24 h): 1.46%
Residual rate of principal component (Plasma stability study 2; 24 h): 0.62%

C#CC[C@H](NC(=O)[C@H](CCCCN)NC(=O)[C@H](CC(=O)O)NC(=O)[C@H](CC(=O)O)NC(=O)Cc1ccc(CNC(=O)NCCCC[C@H](NC(=O)N[C@@H](CCC(=O)O)C(=O)O)C(=O)O)cc1)C(=O)N[C@@H](CCCCNC(=O)CC[C@H](NC(=O)c1ccc(NCc2cnc3[nH]c(N)nc(=O)c3n2)cc1)C(=O)O)C(N)=O [CR202W4] ({EuK-CO}-[X1]DDK[Pra]K([γGlu-Pteroyl])-NH2)
solubility (Solubility study in PBS): 2800 µg/mL (≈ 1.85 mM)
